# How the values were obtained:
# Assay in all cases: capture ELISA on coated 1.14.4; relative to silent alanine substitutions
# [1] = molecular target: T1, hPD-L1_ECD.His point mutant V225A (human, UniProt Q9NZQ7 19-238)
# T1 construct: extracellular domain
# Experimental: (§1) After interacting with the supernatant that contains quantified PD-L1 mutant or human/mouse PD-L1_ECD.His protein (Sino Biological, China), HRP conjugated anti-His antibody (1:5000; Rockland Immunochemicals, Pottstown, PA) was added as detection antibody. Absorbance was normalized according to the average of control mutants. After setting an additional cutoff to the binding fold change (<0.55), the final determined epitope residues were identified.
# (§2) The observed binding reductions most probably resulted from the instability or even collapse of hPD-L1 structure after alanine substitutions. After setting an additional cutoff to the binding fold change (<0.55), the final determined epitope residues were listed in Table 3.
# [2] = molecular target: T2, hPD-L1_ECD.His point mutant T203A (human, UniProt Q9NZQ7 19-238)
# T2 construct: extracellular domain
# T2 sequence (Q9NZQ7 19-238 T203A): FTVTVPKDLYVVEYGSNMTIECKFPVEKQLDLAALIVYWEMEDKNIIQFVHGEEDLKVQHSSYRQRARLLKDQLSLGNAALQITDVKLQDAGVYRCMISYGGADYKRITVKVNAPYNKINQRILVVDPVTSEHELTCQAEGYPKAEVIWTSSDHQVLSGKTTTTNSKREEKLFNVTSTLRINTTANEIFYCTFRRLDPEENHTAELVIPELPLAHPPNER
# Experimental: as §1, §2
# [3] = molecular target: T3, hPD-L1_ECD.His point mutant Q100A (human, UniProt Q9NZQ7 19-238)
# T3 construct: extracellular domain
# T3 sequence (Q9NZQ7 19-238 Q100A): as the sequence (Q9NZQ7 19-238 T203A) above, with Q82A, A185T counted along it
# Experimental: as §1, §2
# [4] = molecular target: T4, hPD-L1_ECD.His point mutant D26A (human, UniProt Q9NZQ7 19-238)
# T4 construct: extracellular domain
# T4 sequence (Q9NZQ7 19-238 D26A): as the sequence (Q9NZQ7 19-238 T203A) above, with D8A, A185T counted along it
# Experimental: as §1, §2
# [5] = molecular target: T5, hPD-L1_ECD.His point mutant R186A (human, UniProt Q9NZQ7 19-238)
# T5 construct: extracellular domain
# T5 sequence (Q9NZQ7 19-238 R186A): as the sequence (Q9NZQ7 19-238 T203A) above, with R168A, A185T counted along it
# Experimental: as §1, §2
# [6] = molecular target: T6, hPD-L1_ECD.His point mutant L88A (human, UniProt Q9NZQ7 19-238)
# T6 construct: extracellular domain
# T6 sequence (Q9NZQ7 19-238 L88A): as the sequence (Q9NZQ7 19-238 T203A) above, with L70A, A185T counted along it
# Experimental: as §1, §2
# [7] = molecular target: T7, hPD-L1_ECD.His point mutant V147A (human, UniProt Q9NZQ7 19-238)
# T7 construct: extracellular domain
# T7 sequence (Q9NZQ7 19-238 V147A): as the sequence (Q9NZQ7 19-238 T203A) above, with V129A, A185T counted along it
# Experimental: as §1, §2
# [8] = molecular target: T8, hPD-L1_ECD.His point mutant A109G (human, UniProt Q9NZQ7 19-238)
# T8 construct: extracellular domain
# T8 sequence (Q9NZQ7 19-238 A109G): as the sequence (Q9NZQ7 19-238 T203A) above, with A91G, A185T counted along it
# Experimental: as §1, §2
# [9] = molecular target: T9, hPD-L1_ECD.His point mutant G159A (human, UniProt Q9NZQ7 19-238)
# T9 construct: extracellular domain
# T9 sequence (Q9NZQ7 19-238 G159A): as the sequence (Q9NZQ7 19-238 T203A) above, with G141A, A185T counted along it
# Experimental: as §1, §2
# [10] = molecular target: T10, hPD-L1_ECD.His point mutant L94A (human, UniProt Q9NZQ7 19-238)
# T10 construct: extracellular domain
# T10 sequence (Q9NZQ7 19-238 L94A): as the sequence (Q9NZQ7 19-238 T203A) above, with L76A, A185T counted along it
# Experimental: as §1, §2
# [11] = molecular target: T11, hPD-L1_ECD.His point mutant D61A (human, UniProt Q9NZQ7 19-238)
# T11 construct: extracellular domain
# T11 sequence (Q9NZQ7 19-238 D61A): as the sequence (Q9NZQ7 19-238 T203A) above, with D43A, A185T counted along it
# Experimental: as §1, §2
# [12] = molecular target: T12, hPD-L1_ECD.His point mutant T179A (human, UniProt Q9NZQ7 19-238)
# T12 construct: extracellular domain
# T12 sequence (Q9NZQ7 19-238 T179A): as the sequence (Q9NZQ7 19-238 T203A) above, with T161A, A185T counted along it
# Experimental: as §1, §2
# [13] = molecular target: T13, hPD-L1_ECD.His point mutant Q77A (human, UniProt Q9NZQ7 19-238)
# T13 construct: extracellular domain
# T13 sequence (Q9NZQ7 19-238 Q77A): as the sequence (Q9NZQ7 19-238 T203A) above, with Q59A, A185T counted along it
# Experimental: as §1, §2
# [14] = molecular target: T14, hPD-L1_ECD.His point mutant D90A (human, UniProt Q9NZQ7 19-238)
# T14 construct: extracellular domain
# T14 sequence (Q9NZQ7 19-238 D90A): as the sequence (Q9NZQ7 19-238 T203A) above, with D72A, A185T counted along it
# Experimental: as §1, §2
# [15] = molecular target: T15, hPD-L1_ECD.His point mutant V111A (human, UniProt Q9NZQ7 19-238)
# T15 construct: extracellular domain
# T15 sequence (Q9NZQ7 19-238 V111A): as the sequence (Q9NZQ7 19-238 T203A) above, with V93A, A185T counted along it
# Experimental: as §1, §2
# [16] = molecular target: T16, hPD-L1_ECD.His point mutant V21A (human, UniProt Q9NZQ7 19-238)
# T16 construct: extracellular domain
# T16 sequence (Q9NZQ7 19-238 V21A): as the sequence (Q9NZQ7 19-238 T203A) above, with V3A, A185T counted along it
# Experimental: as §1, §2
# [17] = molecular target: T17, hPD-L1_ECD.His point mutant E58A (human, UniProt Q9NZQ7 19-238)
# T17 construct: extracellular domain
# T17 sequence (Q9NZQ7 19-238 E58A): as the sequence (Q9NZQ7 19-238 T203A) above, with E40A, A185T counted along it
# Experimental: as §1, §2
# [18] = molecular target: T18, hPD-L1_ECD.His point mutant E218A (human, UniProt Q9NZQ7 19-238)
# T18 construct: extracellular domain
# T18 sequence (Q9NZQ7 19-238 E218A): as the sequence (Q9NZQ7 19-238 T203A) above, with A185T, E200A counted along it
# Experimental: as §1, §2
# [19] = molecular target: T19, hPD-L1_ECD.His point mutant Y123A (human, UniProt Q9NZQ7 19-238)
# T19 construct: extracellular domain
# T19 sequence (Q9NZQ7 19-238 Y123A): as the sequence (Q9NZQ7 19-238 T203A) above, with Y105A, A185T counted along it
# Experimental: as §1, §2
# [20] = molecular target: T20, hPD-L1_ECD.His point mutant L214A (human, UniProt Q9NZQ7 19-238)
# T20 construct: extracellular domain
# T20 sequence (Q9NZQ7 19-238 L214A): as the sequence (Q9NZQ7 19-238 T203A) above, with A185T, L196A counted along it
# Experimental: as §1, §2
# [21] = molecular target: T21, hPD-L1_ECD.His point mutant Y160A (human, UniProt Q9NZQ7 19-238)
# T21 construct: extracellular domain
# T21 sequence (Q9NZQ7 19-238 Y160A): as the sequence (Q9NZQ7 19-238 T203A) above, with Y142A, A185T counted along it
# Experimental: as §1, §2
# [22] = molecular target: T22, hPD-L1_ECD.His point mutant V23A (human, UniProt Q9NZQ7 19-238)
# T22 construct: extracellular domain
# T22 sequence (Q9NZQ7 19-238 V23A): as the sequence (Q9NZQ7 19-238 T203A) above, with V5A, A185T counted along it
# Experimental: as §1, §2
# [23] = molecular target: T23, hPD-L1_ECD.His point mutant A98G (human, UniProt Q9NZQ7 19-238)
# T23 construct: extracellular domain
# T23 sequence (Q9NZQ7 19-238 A98G): as the sequence (Q9NZQ7 19-238 T203A) above, with A80G, A185T counted along it
# Experimental: as §1, §2
# [24] = molecular target: T24, hPD-L1_ECD.His point mutant T181A (human, UniProt Q9NZQ7 19-238)
# T24 construct: extracellular domain
# T24 sequence (Q9NZQ7 19-238 T181A): as the sequence (Q9NZQ7 19-238 T203A) above, with T163A, A185T counted along it
# Experimental: as §1, §2
# [25] = molecular target: T25, hPD-L1_ECD.His point mutant L231A (human, UniProt Q9NZQ7 19-238)
# T25 construct: extracellular domain
# T25 sequence (Q9NZQ7 19-238 L231A): as the sequence (Q9NZQ7 19-238 T203A) above, with A185T, L213A counted along it
# Experimental: as §1, §2
# [26] = molecular target: T26, hPD-L1_ECD.His point mutant K62A (human, UniProt Q9NZQ7 19-238)
# T26 construct: extracellular domain
# T26 sequence (Q9NZQ7 19-238 K62A): as the sequence (Q9NZQ7 19-238 T203A) above, with K44A, A185T counted along it
# Experimental: as §1, §2
# T1 sequence (Q9NZQ7 19-238 V225A): as the sequence (Q9NZQ7 19-238 T203A) above, with A185T, V207A counted along it
binder,measurement,setting,value
"1.14.4 (antibody, V domains shown, Fully human monoclonal antibody with a human constant region of IgG4 isotype) VH: EVQLLESGGGLVQPGGSLRLSCAASGFTFSSYAMSWVRQAPGKGLEWVSGISGSGGFTYYADSVKGRFTISRDNSKNTLYLQMNSLRAEDTAVYYCAKPPRGYNYGPFDYWGQGTLVTVSS VL: SYVLTQPPSVSVAPGQTARITCGGNNIGSKSVHWYQQKPGQAPVLVVYDDSDRPSGIPERFSGSNSGNTATLTISRVEAGDEADYYCQVWDSSSDHVVFGGGTKLTVL",fold change,[1],0.749 fold
same,fold change,[2],0.87 fold
same,fold change,[3],1.01 fold
same,fold change,[4],0.963 fold
same,fold change,[5],0.805 fold
same,fold change,[6],1.1 fold
same,fold change,[7],1.02 fold
same,fold change,[8],0.797 fold
same,fold change,[9],0.448 fold
same,fold change,[10],1.19 fold
same,fold change,[11],0.372 fold
same,fold change,[12],0.893 fold
same,fold change,[13],1.01 fold
same,fold change,[14],0.858 fold
same,fold change,[15],0.723 fold
same,fold change,[16],0.803 fold
same,fold change,[17],0.399 fold
same,fold change,[18],0.732 fold
same,fold change,[19],1.11 fold
same,fold change,[20],0.958 fold
same,fold change,[21],0.505 fold
same,fold change,[22],0.948 fold
same,fold change,[23],1.01 fold
same,fold change,[24],0.947 fold
same,fold change,[25],0.838 fold
same,fold change,[26],0.169 fold

# — patent US20250313634A1 (WUXI BIOLOGICS SHANGHAI, published 2025)
